Results on 32 molecules are retold here after publication PMC10786891, “Massively parallel profiling of RNA-targeting CRISPR-Cas13d”.

Numbering of substitutions follows the chain as printed. Names and notes keep the numbering of the source.

The Kd is the constant that tells how readily two partners part at equilibrium. Read a high Kd as lower affinity.

The chains are these.
B1: target 1 insG 3' of 9,insG 3' of 6 (mixed)
RNA 1: CACCCGUGCAAAAAUGCAGGGGUCUAAAACUGAGCGGAUAACCUCUCUAUGG
RNA 2: GGGAAUGGAUCCACAUCUACGAAUUCGUACCAUAGAGAGGUUAGUCCGGCUCACCGAGAUCGGAAGAGCACACGU
B2: target 1 insU 3' of 22,insU 3' of 20 (mixed)
RNA 1: B1 RNA 1
RNA 2: GGGAAUGGAUCCACAUCUACGAAUUCGUACUCAUUAGAGAGGUUAUCCGCUCACCGAGAUCGGAAGAGCACACGU
B3: target 1 C2A,A9G (mixed)
RNA 1: B1 RNA 1
RNA 2: GGGAAUGGAUCCACAUCUACGAAUUCGUACCAUAGAGAGGUUGUCCGCUAACCGAGAUCGGAAGAGCACACGU
B4: target 1 A1C,U8G (mixed)
RNA 1: B1 RNA 1
RNA 2: B3 RNA 2 with G43A, U44G, A50C, A51C
B5: target 1 C6U,G13A (mixed)
RNA 1: B1 RNA 1
RNA 2: B3 RNA 2 with G39A, G43A, C46U, A50C
B6: target 1 U3G,C4U (mixed)
RNA 1: B1 RNA 1
RNA 2: B3 RNA 2 with G43A, C48U, U49G, A50C
B7: target 1 insC 3' of 14,insC 3' of 10 (mixed)
RNA 1: B1 RNA 1
RNA 2: B1 RNA 2 with G39C, U41G, A43U, G44C, U45A, C46U, G48C
B8: target 1 A1G,U8G (mixed)
RNA 1: B1 RNA 1
RNA 2: B3 RNA 2 with G43A, U44G, A50C, A51G
B9: target 1 insU 3' of 6,insA 3' of 3 (mixed)
RNA 1: B1 RNA 1
RNA 2: B1 RNA 2 with G44U, U45C, C47U, G49C, C50U, U51A
B10: target 1 insU 3' of 9,insU 3' of 4 (mixed)
RNA 1: B1 RNA 1
RNA 2: B1 RNA 2 with G44U, G49C, C50U
B11: target 1 insG 3' of 11,insA 3' of 5 (mixed)
RNA 1: B1 RNA 1
RNA 2: B1 RNA 2 with U42G, A43U, G44A, G49A
B12: target 1 insA 3' of 19,insA 3' of 6 (mixed)
RNA 1: B1 RNA 1
RNA 2: B1 RNA 2 with G35A, A36G, G37A, A38G, G39A, U41G, A43U, G44A, G48A
B13: target 1 insG 3' of 11,insU 3' of 6 (mixed)
RNA 1: B1 RNA 1
RNA 2: B1 RNA 2 with U42G, A43U, G44A, G48U
B14: target 1 insU 3' of 21,insA 3' of 12 (mixed)
RNA 1: B1 RNA 1
RNA 2: B2 RNA 2 with U31C, C32U, U35A, A36G, G37A, A38G, G39A, A40G, G42A
B15: target 1 C7A,A14U (mixed)
RNA 1: B1 RNA 1
RNA 2: B3 RNA 2 with A38U, G43A, C45A, A50C
B16: target 1 insU 3' of 21,insG 3' of 20 (mixed)
RNA 1: B1 RNA 1
RNA 2: B2 RNA 2 with U31C, C32U, U34G
B17: target 1 insC 3' of 22,insA 3' of 15 (mixed)
RNA 1: B1 RNA 1
RNA 2: B2 RNA 2 with U31C, U35A, A36G, G37A, A38G, G39A
B18: target 1 C4A,A9C (mixed)
RNA 1: B1 RNA 1
RNA 2: B3 RNA 2 with G43C, C48A, A50C
B19: target 1 insC 3' of 15,insA 3' of 7 (mixed)
RNA 1: B1 RNA 1
RNA 2: B1 RNA 2 with A38C, G39A, U41G, A43U, G44A, C47A, G48C
B20: target 1 U11G,G15A (mixed)
RNA 1: B1 RNA 1
RNA 2: B3 RNA 2 with G37A, U41G, G43A, A50C
B21: target 1 insU 3' of 7,insC 3' of 3 (mixed)
RNA 1: B1 RNA 1
RNA 2: B1 RNA 2 with G44U, U45C, C46U, G49C, C50U, U51C
B22: target 1 insA 3' of 10,insA 3' of 10 (mixed)
RNA 1: B1 RNA 1
RNA 2: B1 RNA 2 with G44A, U45A, C46U, G48C
B23: target 1 insU 3' of 14,insC 3' of 9 (mixed)
RNA 1: B1 RNA 1
RNA 2: B1 RNA 2 with G39U, U41G, A43U, G44A, U45C, C46U, G48C
B24: target 1 insG 3' of 3,insG 3' of 3 (mixed)
RNA 1: B1 RNA 1
RNA 2: B1 RNA 2 with G44U, U45C, C47G, G48C, G49U, C50G, U51G
B25: target 1 C7A,A18U (mixed)
RNA 1: B1 RNA 1
RNA 2: B3 RNA 2 with A34U, G43A, C45A, A50C
B26: target 1 C4G,U19A (mixed)
RNA 1: B1 RNA 1
RNA 2: B3 RNA 2 with U33A, G43A, C48G, A50C
B27: target 1 A9G,U10A (mixed)
RNA 1: B1 RNA 1
RNA 2: B3 RNA 2 with U42A, A50C
B28: target 1 U8C,U10G (mixed)
RNA 1: B1 RNA 1
RNA 2: B3 RNA 2 with U42G, G43A, U44C, A50C
B29: target 1 insG 3' of 14,insU 3' of 5 (mixed)
RNA 1: B1 RNA 1
RNA 2: B1 RNA 2 with U41G, A43U, G44A, G49U
B30: target 1 G5C,G17U (mixed)
RNA 1: B1 RNA 1
RNA 2: B3 RNA 2 with G35U, G43A, G47C, A50C
B31: target 1 U10A,G17U (mixed)
RNA 1: B1 RNA 1
RNA 2: B3 RNA 2 with G35U, U42A, G43A, A50C
B32: target 1 insU 3' of 4,insU 3' of 4 (mixed)
RNA 1: B1 RNA 1
RNA 2: B1 RNA 2 with G44U, U45C, C47G, G48C, G49U, C50U

This series concerns the target T1, EsCas13d, nuclease-dead (Eubacterium siraeum, UniProt B0MS50, R295A;H300A;R849A;H854A).
T1 sequence: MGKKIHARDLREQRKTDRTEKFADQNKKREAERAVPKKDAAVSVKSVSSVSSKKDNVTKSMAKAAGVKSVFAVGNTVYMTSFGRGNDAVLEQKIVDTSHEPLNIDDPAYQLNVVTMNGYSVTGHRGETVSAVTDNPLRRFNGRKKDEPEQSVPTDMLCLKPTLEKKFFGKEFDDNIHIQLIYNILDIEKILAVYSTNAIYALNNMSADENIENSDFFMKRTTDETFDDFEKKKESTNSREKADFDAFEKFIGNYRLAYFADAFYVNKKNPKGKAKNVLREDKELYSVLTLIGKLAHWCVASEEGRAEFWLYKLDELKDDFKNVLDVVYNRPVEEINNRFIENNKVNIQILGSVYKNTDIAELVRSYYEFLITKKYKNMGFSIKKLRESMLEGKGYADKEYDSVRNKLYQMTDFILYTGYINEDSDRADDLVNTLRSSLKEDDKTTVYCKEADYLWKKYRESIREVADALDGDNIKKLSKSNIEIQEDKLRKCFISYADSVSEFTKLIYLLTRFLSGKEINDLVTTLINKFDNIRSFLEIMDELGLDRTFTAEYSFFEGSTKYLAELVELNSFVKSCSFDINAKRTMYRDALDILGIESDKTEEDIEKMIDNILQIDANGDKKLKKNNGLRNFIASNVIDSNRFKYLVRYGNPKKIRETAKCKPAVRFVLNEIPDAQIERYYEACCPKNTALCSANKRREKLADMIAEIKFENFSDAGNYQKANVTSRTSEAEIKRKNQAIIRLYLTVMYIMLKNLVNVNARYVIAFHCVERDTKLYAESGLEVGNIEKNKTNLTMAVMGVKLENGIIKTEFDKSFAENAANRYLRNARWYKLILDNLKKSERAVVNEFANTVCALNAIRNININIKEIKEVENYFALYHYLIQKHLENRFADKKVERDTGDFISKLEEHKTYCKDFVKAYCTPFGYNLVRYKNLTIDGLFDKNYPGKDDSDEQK
Description: crRNA (strand 1, pre-loaded); Mg2+; 40 mM Tris-HCl pH 7.5, 150 mM NaCl, 6 mM MgCl2, 1 mM DTT, 0.1% Tween-20, 0.2 mg/ml BSA; 25 C; 10 min per concentration, then washed. The following applies: tags: His6-TwinStrep-SUMO cleaved; N-terminal SNAP kept (SNAP-Surface 488); label: 3' end held by stalled T7 RNA polymerase.
As to B1, binding was put at a Kd of 11.2 ± 1.2 nM.
Molecule B2 yielded a Kd of 63 ± 6 nM.
As for B3, the figure is 11.7 ± 0.9 nM; as for B4, 22.4 ± 1.7 nM.
The value for B5 was 9 ± 1.1 nM; that for B6 was 7.2 ± 0.6 nM.
B7 registered a Kd of 55 ± 22 nM.
The value for B8 was 24.5 ± 1.8 nM.
The value for B9 was 8.07 ± 0.3 nM; that for B10 was 14.3 ± 1.2 nM; that for B11 was 26.5 ± 2.9 nM.
As for B12, the figure is 23.2 ± 0.9 nM; as for B13, 62 ± 8 nM; as for B14, 63 ± 9 nM.
Molecule B15 returned a Kd of 39 ± 3.5 nM.
As for B16, the figure is 40 ± 11 nM.
The molecule B17 gave a Kd of 10.9 ± 0.8 nM.
As for B18, the figure is 7.1 ± 0.7 nM; as for B19, 12.6 ± 1 nM.
In turn, B20 had a Kd of 59 ± 7 nM.
As for B21, the figure is 15.6 ± 0.7 nM; as for B22, 7.81 ± 0.3 nM.
The value for B23 was 46 ± 4 nM; that for B24 was 5.5 ± 0.5 nM.
On to B25, for which the Kd came out at 36.4 ± 2.8 nM.
The value for B26 was 51 ± 18 nM; that for B27 was 15.5 ± 0.6 nM.
B28 registered a Kd of 13.5 ± 0.9 nM.
B29 yielded a Kd of 29.6 ± 2.1 nM.
As for B30, the figure is 28.1 ± 2 nM; as for B31, 37.2 ± 3.2 nM; as for B32, 9.4 ± 0.5 nM.
